# Assay results: patent US11357847B2, “Modified HSV gD protein and vaccine containing same” (KM Biologics Co., Ltd., priority 2017, dated 2022)
# Positions count from the first letter of the chain named.
# T1: HVEM (Homo sapiens, UniProt Q92956)
# T1 sequence (Q92956 39-202): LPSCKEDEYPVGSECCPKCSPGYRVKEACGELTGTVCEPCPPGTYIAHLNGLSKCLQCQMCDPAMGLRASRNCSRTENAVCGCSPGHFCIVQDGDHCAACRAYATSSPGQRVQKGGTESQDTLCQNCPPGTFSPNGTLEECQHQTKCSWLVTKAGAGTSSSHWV
# B1: gD1-315v5-55: gD1-315 with glycochains at SC-A, SC-F, linked to T cell epitope peptide DP5 (protein)
# chain: KYALADPSLKMADPNRFRGKNLPVLDQLTDPPGVKRVYHIQPSLEDPFQNASIPITVYYAVLERACRSVLLHAPSEAPQIVRGASDEARKHTYNLTIAWYRMGDNCAIPITVMEYTECPYNKSLGVCPIRTQPRWSYYDSFSAVSEDNLGFLMHAPAFETAGTYLRLVKINDWTEITQFILEHRANASCKYALPLRIPPAACLTSKAYQQGVTVDSIGMLPRFIPENQRTVALYSLKIAGWHGPKPPYTSTLLPPELSDTTNATQPELVPEDPEDSALLEDPAGTVSSQIPPNWHIPSIQDVAPHHAPAAPSNPGGPGPGIAFWVRRRAQMAPKPLRIAFWVRRRAQMAPKPLRHHHHHH
# modifications: left off: small tags and cut ends
# B2: gD1-315v3-55: gD1-315 with glycochain at SC-F, linked to two DP5 T cell epitope peptides (protein)
# chain: B1 chain with N186R
# modifications: left off: small tags and cut ends
# How the values were obtained:
# HVEM = molecular target: T1, HVEM; test: Reactivity of HVEM with gD variants (competitive ELISA); type: binding; details: compared to the original gD1-315; FIG. 14
# Method: From the above discussion, it can be strongly inferred that each variant takes the structure in which FR1 is bound to the receptor binding region. The reactivity of HVEM with each variant was then measured by competitive ELISA.
# HVEM can bind gD for the first time when FR1 binds to the receptor binding region and takes a characteristic hairpin structure. […] FR3-deficient gD1-275v5-55 promoted FR1 binding and further HVEM binding over other gD1-315-based variants in which FR3 was present.
# [1] = system: various anti-gD2 antibodies; test: Reactivity of gD variants with anti-gD2 antibodies (competitive ELISA); type: binding, human; details: for Reactivity with anti-gD2 antibody 1 / Reactivity with anti-gD2 antibody 5 / Reactivity with anti-gD2 antibody 13 / Reactivity with anti-gD2 antibody 72 / Reactivity with anti-gD2 antibody 75 / Reactivity with anti-gD2 antibody 78 / Reactivity with anti-gD2 antibody 82: immobilized gD variant
# From the text: Each anti-gD2 monoclonal antibody and each gD variant were expressed using an Expi293 expression system.
# gD-HVEM interactions = gD-HVEM interactions (Human herpesvirus 2, UniProt P03172, R52Q); details: compared to wild-type gD immune serum; FIG. 34
# Method: Inhibition of gD-HVEM interactions by modified gD immune serum was also analyzed. Specifically, 100 μL of gD1-305-cys-strep dimer adjusted to a concentration of 5 μg/mL with phosphate buffered saline was immobilized in a 96-well microtiter plate at 4° C. overnight. Subsequently, blocking and washing were performed as in the competitive ELISA method described above, 100 μL of IgG purified from each immune serum was added at any concentration and reacted at room temperature for one hour. Subsequently, 1 μg/mL of HVEM (Recombinant Human HVEM/TNFRSF14 Fc Chimera Protein, R&D SYSTEMS, Inc.) was diluted at any dilution fold with 1% BSA PBS, each added at 100 μL and reacted at room temperature for an additional hour. Each well was washed again with PBS-T, then, HRP-labeled antibody (anti-hFc/HRP/1% BSA PBS) was reacted. Each well was washed with PBS-T, then colored, and after the reaction was stopped with 1N sulfuric acid, absorbance of 450 nm/650 nm was measured.
# gD1-315 = gD1-315 (Human herpesvirus 2, UniProt P03172, R52Q); details: compared to wild-type gD immune serum; FIG. 33
# Method: IgG was purified from serum and analyzed by competitive methods using SPR (Biacore, Inc.) to make antibody amounts uniform.
# The anti-gD2 antibody competition test was performed using Biacore 3000 (GE Healthcare), where, in all experiments, HBS-EP buffer (GE Healthcare) was used, the temperature was set to 25° C., and the flow rate was set to 20 μL/min. CMS senor chip (GE Healthcare) was used as the sensor chip, and the experiment was performed based on the recommended protocol. gD1-315-His was immobilized at about 300 RU on the chip surface, and for chip regeneration, glycine-hydrochloride buffer of 0.1 M and pH 2.0 was used and the chip was washed twice at a flow rate of 30 μL/min for 30 seconds. Procedures for competition and calculation of the competition rate were as follows. 10 μg/mL of each anti-gD2 antibody or buffer was applied to the chip under a condition of binding for 1 minute and dissociation for 2.5 minutes. 20 μg/mL of each immune serum purified by IgG was then applied under a condition of binding for 1 minute and dissociation for 5 minutes. After buffer application, the RU detected when immune serum was applied was set to 100%, and the decrease in immune serum response by anti-gD2 antibody application was calculated as the competitive rate.
# splenocytes = test: Cellular immune (T cell immune)-inducing activity, IFN-γ production response of splenocytes; type: in vivo, BALB/c mice; details: 3 μg/mouse; compared to the wild-type gD immune group; FIG. 25
# Method: Furthermore, for cellular immune (T cell immune) inducing activity, the IFN-γ production response activity (recall activity) of splenocytes (a pool sample of four cases) prepared from mice immunized with gD1-315v3-55 as an example of a modified gD antigen and wild-type gD (gD1-315) (3 μg/mouse of the administration group) was compared and analyzed. Specifically, 5 weeks old BALB/c mice were immunized with 3 μg of antigen subcutaneously in back at 2-week intervals for a total of 3 times, and splenocytes were collected 2 weeks after the final immunization. Anti-IFN-γ was immobilized in a 96-well plate with a PVDF membrane on the bottom surface and cells were seeded at 1×10^6 cells/100 μL/well. Immune antigens were added as stimulants at 10 mM and the cells were cultured at 37° C. and 5% CO2 for 20 hours. The supernatant was removed and the anti-mouse IFNγ-HRP antibody was reacted, then HRP was stained with AEC reagents to count IFNγ-producing cell numbers with an Image Analyzer (CTL).
# HSV-2 MS strain = test: Mouse infection-prevention test of modified gD (genital herpes infection model); type: in vivo, BALB/c mice; design: key to Determination (vs gD1-315) / Determination# (vs gD1-315): ++: minimum effective dose based on the Significant difference test in three-fold common ratio relative to gD1-315(WT) of two or more doses stronger; +: those of one dose stronger; ±: those of an equivalent value
# How it was run: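 Female BALB/c mice immunized s.c. three times at 2-week intervals with gD antigen at 0.1–0.003 μg/mouse/time plus MPLA (10 μg) and CpG (1 μg), n=10. Depo-Provera 2 mg s.c. given, then 5×10^5 PFU HSV-2 MS intravaginally 2 weeks post-boost; survival over 21 days, Kaplan-Meier vs saline, scored relative to wild-type gD1-315.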
# [2] = Experiment 1, 0.003 μg/head/time
# [3] = Experiment 1, 0.01 μg/head/time
# [4] = Experiment 1, 0.03 μg/head/time
# [5] = Experiment 2, 0.003 μg/head/time
# [6] = Experiment 2, 0.01 μg/head/time
# [7] = Experiment 2, 0.03 μg/head/time
# Chain of gD1-315 (P03172 26-340 R52Q): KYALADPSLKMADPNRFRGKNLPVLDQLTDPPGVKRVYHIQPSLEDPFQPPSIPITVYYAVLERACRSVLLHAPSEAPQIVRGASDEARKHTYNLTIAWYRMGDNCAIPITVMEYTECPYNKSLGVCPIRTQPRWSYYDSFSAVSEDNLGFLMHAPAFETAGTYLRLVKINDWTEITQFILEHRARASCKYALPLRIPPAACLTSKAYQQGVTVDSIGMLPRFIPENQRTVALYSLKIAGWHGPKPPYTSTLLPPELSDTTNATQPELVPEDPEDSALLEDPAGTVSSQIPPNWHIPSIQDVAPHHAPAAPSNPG
# Chain of gD-HVEM interactions (P03172 26-330 R52Q): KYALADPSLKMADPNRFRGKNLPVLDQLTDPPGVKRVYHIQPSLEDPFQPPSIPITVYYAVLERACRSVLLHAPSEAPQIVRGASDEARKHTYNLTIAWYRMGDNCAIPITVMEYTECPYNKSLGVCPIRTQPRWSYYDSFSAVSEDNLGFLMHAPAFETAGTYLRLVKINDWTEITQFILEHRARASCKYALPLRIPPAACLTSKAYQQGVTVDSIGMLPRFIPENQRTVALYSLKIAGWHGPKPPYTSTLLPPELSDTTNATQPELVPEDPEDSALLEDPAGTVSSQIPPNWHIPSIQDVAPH
molecule,measurement,setting,value
B1,Reactivity with HVEM,HVEM,highest reactivity
same,Relative reactivity with antibody No. 82 (gD1-315 wild-type set to 1),[1]; FIG. 13,approximately 12 fold
same,Reactivity with anti-gD2 antibody 1,[1],+ ((+): 70% or more)
same,Reactivity with anti-gD2 antibody 5,[1],− ((−): less than 30%)
same,Reactivity with anti-gD2 antibody 13,[1],+ ((+): 70% or more)
same,Reactivity with anti-gD2 antibody 72,[1],− ((−): less than 30%)
same,Reactivity with anti-gD2 antibody 75,[1],− ((−): less than 30%)
same,Reactivity with anti-gD2 antibody 78,[1],− ((−): less than 30%)
same,Reactivity with anti-gD2 antibody 82,[1],+ ((+): 70% or more)
same,Inhibition of gD-HVEM interaction by immune serum IgG,gD-HVEM interactions,strong inhibitory effects
same,Percentage of antibodies in immune serum competing with antibody No. 1,gD1-315,little change
same,Percentage of antibodies in immune serum competing with antibody No. 72,gD1-315,tend to decrease
same,Percentage of antibodies in immune serum competing with antibody No. 82,gD1-315,increased percentage
B2,IFN-γ production response activity (recall activity) of splenocytes,splenocytes,higher response activity
same,Reactivity with anti-gD2 antibody 1,[1],+ ((+): 70% or more)
same,Reactivity with anti-gD2 antibody 5,[1],− ((−): less than 30%)
same,Reactivity with anti-gD2 antibody 13,[1],+ ((+): 70% or more)
same,Reactivity with anti-gD2 antibody 72,[1],− ((−): less than 30%)
same,Reactivity with anti-gD2 antibody 75,[1],− ((−): less than 30%)
same,Reactivity with anti-gD2 antibody 78,[1],− ((−): less than 30%)
same,Reactivity with anti-gD2 antibody 82,[1],+ ((+): 70% or more)
same,Percentage of antibodies in immune serum competing with antibody No. 1,gD1-315,little change
same,Percentage of antibodies in immune serum competing with antibody No. 72,gD1-315,tend to decrease
same,Percentage of antibodies in immune serum competing with antibody No. 82,gD1-315,increased percentage
same,Mean survival time,HSV-2 MS strain; [2],>16 days
same,Significant difference test (vs saline),HSV-2 MS strain; [2],*** (*** p < 0.001)
same,Mean survival time,HSV-2 MS strain; [3],15 days
same,Significant difference test (vs saline),HSV-2 MS strain; [3],*** (*** p < 0.001)
same,Mean survival time,HSV-2 MS strain; [4],>21 days
same,Significant difference test (vs saline),HSV-2 MS strain; [4],*** (*** p < 0.001)
same,Mean survival time,"HSV-2 MS strain; Experiment 1, 0.1 μg/head/time",>21 days
same,Significant difference test (vs saline),"HSV-2 MS strain; Experiment 1, 0.1 μg/head/time",*** (*** p < 0.001)
same,Determination (vs gD1-315),"HSV-2 MS strain; Experiment 1, minimum effective dose relative to gD1-315(WT)",++
same,Mean survival time,HSV-2 MS strain; [5],7 days
same,Significant difference test (vs saline),HSV-2 MS strain; [5],N.S.
same,Mean survival time,HSV-2 MS strain; [6],>16 days
same,Significant difference test (vs saline),HSV-2 MS strain; [6],N.S.
same,Mean survival time,HSV-2 MS strain; [7],>22 days
same,Significant difference test (vs saline),HSV-2 MS strain; [7],*** (*** p < 0.001)
same,Mean survival time,"HSV-2 MS strain; Experiment 2, 0.1 μg/head/time",>22 days
same,Significant difference test (vs saline),"HSV-2 MS strain; Experiment 2, 0.1 μg/head/time",*** (*** p < 0.001)
same,Determination# (vs gD1-315),"HSV-2 MS strain; Experiment 2, minimum effective dose relative to gD1-315(WT)",+
